Reference: paper PMC10901373, “An unusual dual sugar-binding lectin domain controls the substrate specificity of a mucin-type O-glycosyltransferase” (Science Advances, 2024)
Values belong to the binder of their own block, whether it stands above or below them. No end group written: not given here. *: point of attachment. αGalNAc = CC(=O)N[C@@H]1[C@@H](O)[C@@H](O)[C@@H](CO)O[C@@H]1*

Tests used:
[1] = target: T1, mouse GalNAc-T1 (pKN55-His6-TEV-mGalNAc-T1-∆56) (mouse, UniProt O08912 57-559); assay: crystal structure; mouse GalNAc-T1 (5 mg/ml) combined with 4 mM Muc5AC-13, 5 mM UDP and 5 mM MnCl2; hanging drops, 20% PEG-3350, 0.1 M MES pH 6.5; 2.3 Å; conditions: both partners purified
T1 construct: mouse polypeptide N-acetylgalactosaminyltransferase 1 (GalNAc-T1), construct printed as mGalNAc-T1-∆56 (read as lacking the first 56 residues); 98% identical to human GalNAc-T1; The construct has a TEV site after the His6 tag; The start at residue 57 is read from the name ∆56; also called N-acetylgalactosaminyl-transferase 1; source: SD200 16/60 gel filtration before crystallization
T1 sequence (looked up): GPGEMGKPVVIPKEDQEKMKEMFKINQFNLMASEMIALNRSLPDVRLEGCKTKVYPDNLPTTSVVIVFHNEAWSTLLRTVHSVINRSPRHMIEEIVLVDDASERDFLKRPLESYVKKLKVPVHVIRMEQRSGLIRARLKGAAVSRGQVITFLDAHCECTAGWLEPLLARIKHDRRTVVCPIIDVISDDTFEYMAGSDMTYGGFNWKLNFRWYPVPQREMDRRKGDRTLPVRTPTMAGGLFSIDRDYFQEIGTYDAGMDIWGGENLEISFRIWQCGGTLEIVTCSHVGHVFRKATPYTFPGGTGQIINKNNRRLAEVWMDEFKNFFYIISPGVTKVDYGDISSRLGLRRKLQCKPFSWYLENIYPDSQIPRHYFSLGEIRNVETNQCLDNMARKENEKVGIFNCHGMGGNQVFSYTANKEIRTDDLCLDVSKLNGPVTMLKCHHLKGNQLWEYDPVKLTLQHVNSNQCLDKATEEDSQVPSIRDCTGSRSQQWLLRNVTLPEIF

[2] = target: T2, human GalNAc-T1 D444A (α repeat variant) (human) (UniProt Q10472)
T2 sequence: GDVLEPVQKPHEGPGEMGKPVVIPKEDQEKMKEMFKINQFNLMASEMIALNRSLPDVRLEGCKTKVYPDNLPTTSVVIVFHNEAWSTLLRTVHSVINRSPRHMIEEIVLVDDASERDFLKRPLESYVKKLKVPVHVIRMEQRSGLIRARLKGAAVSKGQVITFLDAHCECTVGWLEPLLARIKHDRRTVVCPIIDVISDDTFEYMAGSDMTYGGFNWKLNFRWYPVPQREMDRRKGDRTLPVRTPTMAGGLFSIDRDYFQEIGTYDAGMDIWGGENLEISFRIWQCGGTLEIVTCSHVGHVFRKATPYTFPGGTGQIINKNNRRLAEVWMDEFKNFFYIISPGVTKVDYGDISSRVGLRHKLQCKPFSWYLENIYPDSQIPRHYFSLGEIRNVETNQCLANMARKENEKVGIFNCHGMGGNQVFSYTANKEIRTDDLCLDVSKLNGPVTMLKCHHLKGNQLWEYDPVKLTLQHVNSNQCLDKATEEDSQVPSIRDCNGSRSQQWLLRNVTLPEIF

[3] = target: T3, human GalNAc-T1 D484A (β repeat variant) (human) (UniProt Q10472)
T3 sequence: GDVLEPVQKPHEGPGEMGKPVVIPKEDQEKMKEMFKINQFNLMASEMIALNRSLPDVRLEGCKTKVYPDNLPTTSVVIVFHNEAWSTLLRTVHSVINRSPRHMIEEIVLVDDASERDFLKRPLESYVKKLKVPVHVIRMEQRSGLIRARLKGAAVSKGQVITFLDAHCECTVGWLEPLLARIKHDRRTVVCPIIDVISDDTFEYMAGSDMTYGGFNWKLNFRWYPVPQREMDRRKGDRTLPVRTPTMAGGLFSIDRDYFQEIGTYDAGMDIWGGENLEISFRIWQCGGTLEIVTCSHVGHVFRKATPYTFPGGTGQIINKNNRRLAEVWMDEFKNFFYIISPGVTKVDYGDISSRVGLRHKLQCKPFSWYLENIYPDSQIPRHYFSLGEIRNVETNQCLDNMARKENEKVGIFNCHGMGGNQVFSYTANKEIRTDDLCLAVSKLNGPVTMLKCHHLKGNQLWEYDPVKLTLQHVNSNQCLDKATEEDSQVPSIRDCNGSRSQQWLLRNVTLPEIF

binding result [1]: binds
B1: Muc5AC-13 glycopeptide (GTT3PSPVPTTSTT13^GalNAcSAP) (peptide)
peptide: GTTPSPVPTTSTT(αGalNAc)SAP
notes: Muc5AC mucin repeat peptide, 16 residues; numbers count on: the peptide; source: synthetic peptide (Anaspec)

KM (UDP-Glo), fold increase compared to GalNAc-T1^WT [2]: 10 fold
kcat/KM (UDP-Glo), fold reduction compared to GalNAc-T1^WT [2]: 16 fold
B2: Muc5AC-A3 glycopeptide (GAT3^GalNAc…13PAP) (peptide)
peptide: GAT(αGalNAc)PAPVPAGAGTPAP

KM (UDP-Glo), fold increase compared to GalNAc-T1^WT [3]: 20 fold
kcat/KM (UDP-Glo), fold decrease compared to GalNAc-T1^WT [3]: 29 fold
B3: Muc5AC-A13 glycopeptide (GAT3…13^GalNAcPAP) (peptide)
peptide: GATPAPVPAGAGT(αGalNAc)PAP
